Data taken from IntAct's records for PubMed 19395483.

B1: ATP-dependent protease ATPase subunit HslU (Escherichia coli (strain K12)), P0A6H5 (parent)
chain: MSEMTPREIVSELDKHIIGQDNAKRSVAIALRNRWRRMQLNEELRHEVTPKNILMIGPTGVGKTEIARRLAKLANAPFIKVEATKFTEVGYVGKEVDSIIRDLTDAAVKMVRVQAIEKNRYRAEELAEERILDVLIPPAKNNWGQTEQQQEPSAARQAFRKKLREGQLDDKEIEIDLAAAPMGVEIMAPPGMEEMTSQLQSMFQNLGGQKQKARKLKIKDAMKLLIEEEAAKLVNPEELKQDAIDAVEQHGIVFIDEIDKICKRGESSGPDVSREGVQRDLLPLVEGCTVSTKHGMVKTDHILFIASGAFQIAKPSDLIPELQGRLPIRVELQALTTSDFERILTEPNASITVQYKALMATEGVNIEFTDSGIKRIAEAAWQVNESTENIGARRLHTVLERLMEEISYDASDLSGQNITIDADYVSKHLDALVADEDLSRFIL
partner: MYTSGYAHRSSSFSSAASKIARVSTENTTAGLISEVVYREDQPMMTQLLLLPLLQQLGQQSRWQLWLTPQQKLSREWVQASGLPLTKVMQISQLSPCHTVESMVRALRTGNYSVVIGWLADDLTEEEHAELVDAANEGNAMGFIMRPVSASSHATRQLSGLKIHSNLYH

Variants of: B1
Conditions: with sula_ecoli sulA

Variant	effect of a mutation on the interaction
V89I	increasing interaction strength
I186N	disrupting interaction strength
